The target in one assay is T1, hCXCR6 (human, UniProt O00574 1-342).
T1 construct: whole, on cells
In words: flow cytometry, IgG 100 nM, cells over-expressing hCXCR6. The protocol: (§1) Cells over-expressing different GPCRs other than CXCR4 and several lines transfected to over-express CXCR4 (R1610-hCXCR4, Cf2Th-hCXCR4 and CHO-hCXCR4) were compared. Cultures were incubated with a test IgG at 100 nM in FACS buffer for 40 min at 4° C. Thereafter, cells were washed twice, stained with anti-human-Fc antibody-PE conjugate (Jackson Immunoresearch Laboratories Inc., West Grove, Pa.), washed twice in FACS buffer and then transferred to FIX buffer. Fluorescence intensities were measured by GUAVA PCA-96 at 425V (in triplicate).
(§2) The expression of GPCRs other than CXCR4 was confirmed using commercially available antibodies (positive controls). For example, a commercial anti-CXCR1 antibody was used as a positive control for confirming the expression of CXCR1 on the CXCR1-transfected CHO cells.
For orientation: A flow cytometer gives signals particle by particle.

The target in assay [1] is T2, human CXCR4 (human, UniProt P61073 1-352).
T2 construct: whole, on cells; also called hCXCR4; LESTR
In words: flow cytometry, IgG 100 nM, Cf2Th-hCXCR4 cells. The protocol: as §1

Assay [2] has as its target T2, human CXCR4. In words: flow cytometry, IgG 10 µg/mL, CXCR4-expressing Ramos (RA1) cells. The protocol: Binding of test IgGs to CXCR4-expressing human lymphoma cells (Ramos; RA1, ATCC® CRL-1596™) was measured by fluorescent flow cytometry-based assay. Tumor cell staining was conducted as follows: human Fcγ receptors of RA1 cells were saturated by incubation at 4° C. for 30 minutes in PBS containing 2% human serum and 0.5 mM EDTA. Cells were then incubated at 4° C. for one hour with test IgGs or a human isotypic IgG1 kappa control (Coger Sarl, Paris, France) (both antibody types at 10 μg/mL). The cells were washed with PBS and further incubated for one hour at 4° C. with a goat F(ab′)2 fragment anti-human IgG (H+L)-PE (Beckman Coulter). The cells were washed twice with PBS and fixed with 0.5% formaldehyde in PBS for analysis by flow cytometry. The data were acquired using an eleven-color flow cytometer (LSRII, BD Biosciences), and the analyses were performed with the FlowJo flow cytometry analysis software (Tree Star Inc., Ashland, Oreg.). The living cells were selected using the side scatter (SSC) and the forward scatter (FSC); 10,000 events were acquired for each analysis. MFI values were recorded using the PE channel.

Assay [3] addresses T2, human CXCR4. As to the kind of experiment: flow cytometry on Cf2-Th cells transfected with human CXCR4, IgG1 format. The protocol: A typical protocol for the fluorescent flow cytometry-based assay was as follows. Ten microliter of a purified test IgG solution or buffer as a control were added to 10 microliter of a suspension containing approximately 30,000 Cf2-Th cells transfected to express human CXCR4. After incubation on ice for 40 min, cells were washed with FACS buffer (phosphate-buffered saline (PBS), pH7.4; 2% fetal calf serum, 0.1% sodium azide) to remove unbound antibodies. Ten microliter of a solution of phycoerythrin (PE)-conjugated mouse anti-human Fc monoclonal antibody (1/20 dilution; catalog number 12-4998-82, eBioscience Inc., San Diego, Calif.) were then added to the cells, and, after a 30-min incubation on ice, cells were washed twice and then formalin-fixed (FIX buffer: PBS, pH7.4; 0.5% formaldehyde). Fixed samples were analysed by fluorescent flow cytometry using a Guava-PCA96 instrument (EMD Millipore Chemicals, Merck KGaA, Darmstadt, Germany).

Another assay deals with T3, hCCR9 (human, UniProt P51686 1-369).
T3 construct: whole, on cells
T3 sequence (looked up): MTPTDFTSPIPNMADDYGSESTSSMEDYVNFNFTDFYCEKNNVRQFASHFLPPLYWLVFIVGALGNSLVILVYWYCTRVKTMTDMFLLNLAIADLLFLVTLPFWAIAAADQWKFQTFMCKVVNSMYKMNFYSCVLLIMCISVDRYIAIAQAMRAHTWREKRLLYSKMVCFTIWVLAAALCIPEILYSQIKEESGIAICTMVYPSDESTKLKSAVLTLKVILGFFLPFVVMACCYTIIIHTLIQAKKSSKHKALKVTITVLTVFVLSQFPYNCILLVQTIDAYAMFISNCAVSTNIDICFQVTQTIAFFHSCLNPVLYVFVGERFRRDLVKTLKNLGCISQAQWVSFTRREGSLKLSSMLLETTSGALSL
As to the kind of experiment: flow cytometry, IgG 100 nM, cells over-expressing hCCR9. The protocol: as §1

The target of a further assay is T4, hCCR3 (human, UniProt P51677 1-355).
T4 construct: whole, on cells
T4 sequence (looked up): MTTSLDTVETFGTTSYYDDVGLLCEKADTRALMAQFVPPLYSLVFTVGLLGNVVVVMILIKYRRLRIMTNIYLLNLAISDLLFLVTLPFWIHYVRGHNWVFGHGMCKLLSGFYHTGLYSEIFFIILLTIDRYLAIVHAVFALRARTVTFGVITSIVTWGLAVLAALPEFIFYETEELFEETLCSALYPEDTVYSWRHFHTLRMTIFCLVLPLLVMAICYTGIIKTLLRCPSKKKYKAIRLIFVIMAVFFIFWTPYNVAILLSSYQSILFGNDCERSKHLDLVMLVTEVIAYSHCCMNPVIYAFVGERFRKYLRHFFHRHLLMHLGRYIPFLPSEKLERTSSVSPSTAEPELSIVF
As to the kind of experiment: flow cytometry, IgG 100 nM, cells over-expressing hCCR3. The protocol:
as §1, §2

Another assay concerns the target T5, hCCR7 (human, UniProt P32248 25-378).
T5 construct: whole, on cells
T5 sequence (looked up): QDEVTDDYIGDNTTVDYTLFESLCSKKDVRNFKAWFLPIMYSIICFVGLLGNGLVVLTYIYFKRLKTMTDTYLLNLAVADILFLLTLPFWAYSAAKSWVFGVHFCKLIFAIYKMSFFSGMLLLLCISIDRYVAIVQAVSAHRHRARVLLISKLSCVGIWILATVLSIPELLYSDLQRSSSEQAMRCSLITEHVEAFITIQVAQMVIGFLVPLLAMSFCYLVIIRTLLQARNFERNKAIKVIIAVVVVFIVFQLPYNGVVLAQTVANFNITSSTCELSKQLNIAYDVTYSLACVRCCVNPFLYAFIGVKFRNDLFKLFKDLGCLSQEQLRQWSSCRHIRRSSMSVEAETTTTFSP
As to the kind of experiment: flow cytometry, IgG 100 nM, cells over-expressing hCCR7. The protocol:
as §1, §2

T2 sequence (P61073 whole entry): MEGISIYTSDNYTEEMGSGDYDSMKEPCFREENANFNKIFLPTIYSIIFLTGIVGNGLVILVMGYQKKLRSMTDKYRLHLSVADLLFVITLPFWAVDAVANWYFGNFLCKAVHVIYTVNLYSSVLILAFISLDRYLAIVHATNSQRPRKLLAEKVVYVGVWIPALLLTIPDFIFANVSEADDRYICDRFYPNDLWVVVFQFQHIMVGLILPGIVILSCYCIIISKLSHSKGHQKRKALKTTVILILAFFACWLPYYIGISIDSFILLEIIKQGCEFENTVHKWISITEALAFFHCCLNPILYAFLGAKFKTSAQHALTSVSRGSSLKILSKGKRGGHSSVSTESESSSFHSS
T1 sequence (O00574 whole entry): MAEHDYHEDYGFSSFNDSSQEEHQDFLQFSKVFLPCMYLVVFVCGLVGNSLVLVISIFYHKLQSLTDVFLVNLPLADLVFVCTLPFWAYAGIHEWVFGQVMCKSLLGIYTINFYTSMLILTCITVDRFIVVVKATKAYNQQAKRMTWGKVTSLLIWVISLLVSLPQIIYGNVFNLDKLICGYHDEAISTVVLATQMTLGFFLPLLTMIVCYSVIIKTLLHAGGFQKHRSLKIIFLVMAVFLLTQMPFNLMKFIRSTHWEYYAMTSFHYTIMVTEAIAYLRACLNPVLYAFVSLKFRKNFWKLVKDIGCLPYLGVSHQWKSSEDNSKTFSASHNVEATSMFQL

B1: V62.1-R108H (antibody, human IgG1, V domains shown)
VH: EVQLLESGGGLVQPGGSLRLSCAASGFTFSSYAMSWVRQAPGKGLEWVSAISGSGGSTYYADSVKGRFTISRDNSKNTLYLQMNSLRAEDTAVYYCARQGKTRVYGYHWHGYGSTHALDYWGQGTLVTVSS
VL: EIVLTQSPGTLSLSPGERATLSCRASQSVSSSYLAWYQQKPGQAPRLLIYGASSRATGIPDRFSGSGSGTDFTLTISRLEPEDFAVYYCQQSDYSYPFTFGQGTKVEIKR
notes: Tested as an IgG (human IgG1 format); also called IgG1 V62.1 R108H
As a reminder, the EC50 is the concentration needed to bring the measured effect to its halfway point. High values mean a need for much substance, low ones an effect from little substance. As for B1, the MFI with hCXCR6 stood at 3; with human CXCR4 [1] it was 861; in the assay with human CXCR4 [2], 429; with hCCR9 it was 3; in the assay with hCCR3, 4; with hCCR7 it was 4. The molecule also registered an EC50 in the assay with human CXCR4 [3] of less than 10 nM.

B2: V62.1 (antibody, human IgG1, V domains shown)
VH: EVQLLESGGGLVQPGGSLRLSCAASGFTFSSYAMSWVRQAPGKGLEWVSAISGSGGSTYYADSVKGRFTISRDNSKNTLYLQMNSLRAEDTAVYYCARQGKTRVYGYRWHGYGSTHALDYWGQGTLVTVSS
VL: EIVLTQSPGTLSLSPGERATLSCRASQSVSSSYLAWYQQKPGQAPRLLIYGASSRATGIPDRFSGSGSGTDFTLTISRLEPEDFAVYYCQQSDYSYPFTFGQGTKVEIKR
notes: Tested as an IgG (human IgG1 format; DP47 heavy and DPK22 kappa light frameworks) made in CHO-3E7 cells; also called IgG V62.1
Turning to B2, the MFI is 3 with hCXCR6; 1270 with human CXCR4 [1]; 595 with human CXCR4 [2]; 4 with hCCR9; 4 in the assay with hCCR3; 3 in the assay with hCCR7. The molecule further yielded an EC50 in the assay with human CXCR4 [3] of less than 10 nM.

B3: V62.1-R108H-m80 (antibody, human IgG1, V domains shown)
VH: EVQLLESGGGLVQPGGSLRLSCAASGFTISPYSITWVRQAPGKGLEWVSQINSYNGKTYYADSVKGRFTISRDNSKNTLYLQMNSLRAEDTAVYYCARQGKTRVYGYHWHGYGSTHALDYWGQGTLVTVSS
VL: EIVLTQSPGTLSLSPGERATLSCRASQSVSSSYLAWYQQKPGQAPRLLIYGASSRATGIPDRFSGSGSGTDFTLTISRLEPEDFAVYYCQQSDYSYPFTFGQGTKVEIKR
notes: Tested as an IgG (human IgG1 format); also called V62.1-H-m80; V62.1-R108H-m80-Wt
For B3, the MFI was found to be 7 with hCXCR6; 3870 with human CXCR4 [1]; 440 in the assay with human CXCR4 [2]; 8 in the assay with hCCR9; 2 with hCCR3. For the same molecule, the EC50 with human CXCR4 [3] was less than 10 nM.

B4: V62.1-R108H-m47-m38 (antibody, human IgG1, V domains shown)
VH: EVQLLESGGGLVQPGGSLRLSCAASGFTFSSYAMSWVRQAPGKGLEWVSAISGSGGTRYADSVKGRFTISRDNSKNTLYLQMNSLRAEDTAVYYCARQGKTRVYGYHWHGYGSTHALDYWGQGTLVTVSS
VL: EIVLTQSPGTLSLSPGERATLSCRASQSVSSSYLAWYQQKPGQAPRLLIYGASSRATGIPDRFSGSGSGTDFTLTISRLEPEDFAVYYCQQWSSDSVTFGQGTKVEIKR
notes: Tested as an IgG (human IgG1 format); also called V62.1-H-m47-m38; IgG1 62.1-R108H-m47-m38
Regarding B4, the MFI in the assay with hCXCR6 came to 2; in the assay with human CXCR4 [1] it was 2350; with human CXCR4 [2], 549; with hCCR9, 2; with hCCR7, 2. Also, the EC50 with human CXCR4 [3] was less than 10 nM.
